# B1: human DPPA3, residues 81–118 (recombinant) [human] / human UHRF1 PHD finger, residues 299–366 [human] (parent)
# chain 1: SRRGVRTLLSVQREKMARLRYMLLGGVRTHERRPTNKE
# chain 2: GPSCKHCKDDVNRLCRVCACHLCGGRQDPDKQLMCDECDMAFHIYCLDPPLSSVPSEDEWYCPECRND
# Variants of: B1
# Assay: ITC
# Settings: with human UHRF1 PHD finger
row,Kd [nM],Variant
1,1610,chain 1 V5A
